The text below walks through data of US20120065134A1 (PHYLOGICA, published 2012).

Where no end group is shown, it is not given here. PEG = not defined here

B8: CD40 ligand (CD40L or CD154) (ligand)
chain: MQKGDQNPQIAAHVISEASSKTTSVLQWAEKGYYTMSNNLVTLENGKQLTVKRQGLYYIYAQVTFCSNREASSQAPFIASLCLKSPGRFERILLRAANTHSSAKPCGQQSIHLGGVFELQPGASVFVNVTDPSQVSHGTGFTSFGLLKL
modifications: biotinylated ('biotinylated phospho-CD40L') in the proximity assay as described in paragraph 342
notes: Species never stated; also called soluble CD40L; CD40L target protein

Assay [1] addresses B8. Nature of the assay: cell-based or functional assay.
In assay [2] the target is B8. The assay is described as follows: BLI, Octet Red (ForteBio), label-free. A general note: BLI is a label-free optical method that tracks binding on a fibre tip over time.
In assay [3] the target is B8. Nature of the assay: Alphascreen proximity assay, inhibition of CD40L/CD40-Fc interaction, unmodified peptide. Background: Bead proximity is the source of the signal in Alpha formats.
Assay [4] addresses B8. Nature of the assay: cell-based or functional assay. The source holds these as a separate data set.
The target of assay [5] is B8. The assay is described as follows: Alphascreen proximity assay, inhibition of CD40L-CD40 interaction.
Assay [6] addresses B8. Nature of the assay: Alphascreen proximity assay, 0.75nM CD40L; peptide titrated; blocked ligand is CD40 (CD40-Fc on acceptor beads).
In assay [7] the target is B8. The assay is described as follows: Alphascreen proximity assay; peptide titrated, axis Phylomer (M); blocked ligand is CD40 (CD40-Fc on acceptor beads).
The target in a further assay is CD40 on primary B-cells. The assay is described as follows: cell-based or functional assay.
Another assay concerns the target T1, CD40L M8_748.
T1 construct: Base peptide, natural open reading frame
The assay is described as follows: BLI, Octet Red (ForteBio), label-free.

B1: CD40L M7_217 (peptide)
peptide: LCEMIAIYVFLWKKVFL
Consider B1, for which the “EC50, inhibition of CD40L-induced CD86 expression on primary B-cells (FACS), unmodified peptide” value in assay [1] worked out at 2500 nM.

B2: CD40L M8_747 (peptide)
peptide: LAEHAVWSLKCFPDWEWYNINIFGTDDPNHFWVECDGHGKILFPGYPEGYYENHFLHSFELED
In general, Kd refers to the concentration at which binding is half-saturated. Broadly, the EC50 is the concentration at which the effect is half-maximal. For B2, the Kd in assay [2] came out at 8 nM. The molecule also came in with an EC50 in [3] of 197 nM.

B3: PEGylated CD40L M1_50s (peptide)
peptide: {PEG}-PRWVRNRFYSLFVPSGVQRGGIHLWFSNWVR
modifications: reading uncertain; also: PEG size and spacer not given here
Consider B3, for which the “EC50, inhibition of CD40L-induced CD86 expression on primary B-cells (FACS), PEGylated peptide” value (“EC50, inhibition … PEGylated peptide” for short) in assay [1] amounted to 30 nM.

B4: PEGylated CD40L M1_30s (peptide)
peptide: {PEG}-DAAGREFFQIAGLFSFRHHWWQA
modifications: reading uncertain; also: PEG size and spacer not given here
B4: the “EC50, inhibition … PEGylated peptide” value in [1] was > 2000 nM.

B5: PEGylated CD40L M1_9s (peptide)
peptide: {PEG}-PPRYNLFFLFRFYSSFRRDYLYF
modifications: reading uncertain; also: PEG size and spacer not given here
As to B5, the “EC50, inhibition … PEGylated peptide” value in assay [1] came out at 180 nM.

B6: PEGylated CD40L M1_18s (peptide)
peptide: {PEG}-LPFVPYRSHVLKYGWFFPVQWSIFAVLPFQYLHRSR
modifications: reading uncertain; also: PEG size and spacer not given here
For the molecule B6, the “EC50, inhibition … PEGylated peptide” value in [1] amounted to 90 nM.

B7: Cys_M1_6S (peptide)
peptide: CHPFSIKNVFSIWNFFSVY
modifications: a cysteine-containing linker (8-amino-3,6-dioxaoctanoyl type, FIG. 1b) may stand between Cys and the peptide; not stated for this molecule
notes: also called cysteine-containing derivative of M1-6S
Consider B7, for which the “EC50, inhibition of CD40L-induced CD86 expression on primary B-cells” value in assay [4] was 306 nM. For the same molecule, in [5], the midpoint of the response, the EC50, lay at 0.265 nM. The “IC50 (read off the curve)” value in assay [6] and in assay [7] was ~300 nM each time.
As for B8, in the assay with CD40 on primary B-cells, the “EC50, induction of CD86 expression on primary B-cells by CD40L” value is ~9 nM. Also, the Kd with CD40L M8_748 amounted to 5 nM.

B9: PEGylated CD40L M1_42s (peptide)
peptide: {PEG}-HSFVLFGVNVPFNIIDFQMRVKS
modifications: reading uncertain; also: PEG size and spacer not given here
B9: the “EC50, inhibition … PEGylated peptide” value in assay [1] is 5000 nM.

B10: PEGylated CD40L M1_6s (peptide)
peptide: {PEG}-HPFSIKNVFSIWNFFSVY
modifications: reading uncertain; also: PEG size and spacer not given here
Turning to B10, the “EC50, inhibition … PEGylated peptide” value in [1] came to 1.5 nM.
